We go through four molecules from US20110282033A1 (Ablynx, published 2011).

Where a chain is given by its changes, count along the chain named.

Test [1] deals with dimeric VEGFR1/Fc chimera (R&D Systems Cat #321-FL) (UniProt P17948). Put plainly: competition ELISA: VEGFR1-Fc (0.1 ug/ml) pre-mixed with Nanobody, binding to coated VEGF165 (0.2 ug/ml), detection with HRP anti-human IgG.
In test [2] the target is T1, Recombinant human FGFR4/Fc chimera (R&D Systems Cat #685 FR) (human, UniProt P22455 22-369).
T1 construct: extracellular domain; Bought reagent; also called Fc-FGFR4; not shown: Fc part of the bought chimera (detected with anti-human IgG)
T1 sequence (looked up): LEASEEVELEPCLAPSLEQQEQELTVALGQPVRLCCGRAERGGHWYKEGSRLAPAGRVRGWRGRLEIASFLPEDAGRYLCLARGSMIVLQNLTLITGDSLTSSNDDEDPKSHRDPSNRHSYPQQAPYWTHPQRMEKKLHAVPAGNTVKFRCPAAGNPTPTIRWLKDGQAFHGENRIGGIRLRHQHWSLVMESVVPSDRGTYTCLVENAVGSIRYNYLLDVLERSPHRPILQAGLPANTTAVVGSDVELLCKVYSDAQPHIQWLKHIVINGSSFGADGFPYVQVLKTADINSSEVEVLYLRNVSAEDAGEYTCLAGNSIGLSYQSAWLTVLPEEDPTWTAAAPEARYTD
The experiment in a line: ELISA: periplasmic extract on coated FGFR4-Fc (500 ng/ml). The protocol: In order to determine binding specificity to FGFR4, the clones were tested in an ELISA binding assay setup, using the monoclonal […]. Shortly, 500 ng/ml of Fc-FGFR4 (R&D Systems Cat #685 FR) was coated on Maxisorp ELISA plates (Nunc) and free binding sites were blocked using 4% Marvel skimmed milk in PBS. After a wash step with PBS, 10 ul of periplasmic extract from the monoclonal inductions of the different clones in 100 ul 2% Marvel PBS were allowed to bind to the FGFR4-Fc. […] 53-G3 was used as a reference since it was selected against PDGFRβ-Fc.
In general terms: In an ELISA, binding on a coated surface is turned into a signal by an enzyme label.

Test [3] addresses T2, Recombinant human PDGFRβ/Fc chimera (R&D Systems Cat #385 PR) (human, UniProt P09619 33-532).
T2 construct: extracellular domain; Bought reagent; also called PDGFRP-Fc; not shown: Fc part of the bought chimera (captured and detected with anti-human IgG)
The experiment in a line: phage ELISA on PDGFRβ-Fc (0.1 ug/ml) captured by coated anti-human IgG, detection with HRP anti-M13. Here is the method:
In order to determine binding specificity to PDGFRβ-Fc, the clones were tested in an ELISA binding assay setup, using the monoclonal phage pools. Shortly, 1 ug/ml of Fc-capturing Ab (Rabbit anti-human IgG, DAKO # A423) was coated on Maxisorp ELISA plates (Nunc) and free binding sites were blocked using 4% Marvel skimmed milk in PBS. Next, 0.1 ug/ml receptor in 2% Marvel/PBS was captured. After a wash step with PBS, 10 ul of supernatant from the monoclonal phage inductions of the different clones in 100 ul 2% Marvel PBS were allowed to bind to the captured PDGFRP-Fc. […] Binding specificity was determined based on OD values compared to controls having received no phage.

For a further test, the target named is T3, PDGFRb on HeLa cells (human, UniProt P09619 33-1106).
T3 construct: whole, on cells; HeLa cells were not transfected
T3 sequence (P09619 33-1106): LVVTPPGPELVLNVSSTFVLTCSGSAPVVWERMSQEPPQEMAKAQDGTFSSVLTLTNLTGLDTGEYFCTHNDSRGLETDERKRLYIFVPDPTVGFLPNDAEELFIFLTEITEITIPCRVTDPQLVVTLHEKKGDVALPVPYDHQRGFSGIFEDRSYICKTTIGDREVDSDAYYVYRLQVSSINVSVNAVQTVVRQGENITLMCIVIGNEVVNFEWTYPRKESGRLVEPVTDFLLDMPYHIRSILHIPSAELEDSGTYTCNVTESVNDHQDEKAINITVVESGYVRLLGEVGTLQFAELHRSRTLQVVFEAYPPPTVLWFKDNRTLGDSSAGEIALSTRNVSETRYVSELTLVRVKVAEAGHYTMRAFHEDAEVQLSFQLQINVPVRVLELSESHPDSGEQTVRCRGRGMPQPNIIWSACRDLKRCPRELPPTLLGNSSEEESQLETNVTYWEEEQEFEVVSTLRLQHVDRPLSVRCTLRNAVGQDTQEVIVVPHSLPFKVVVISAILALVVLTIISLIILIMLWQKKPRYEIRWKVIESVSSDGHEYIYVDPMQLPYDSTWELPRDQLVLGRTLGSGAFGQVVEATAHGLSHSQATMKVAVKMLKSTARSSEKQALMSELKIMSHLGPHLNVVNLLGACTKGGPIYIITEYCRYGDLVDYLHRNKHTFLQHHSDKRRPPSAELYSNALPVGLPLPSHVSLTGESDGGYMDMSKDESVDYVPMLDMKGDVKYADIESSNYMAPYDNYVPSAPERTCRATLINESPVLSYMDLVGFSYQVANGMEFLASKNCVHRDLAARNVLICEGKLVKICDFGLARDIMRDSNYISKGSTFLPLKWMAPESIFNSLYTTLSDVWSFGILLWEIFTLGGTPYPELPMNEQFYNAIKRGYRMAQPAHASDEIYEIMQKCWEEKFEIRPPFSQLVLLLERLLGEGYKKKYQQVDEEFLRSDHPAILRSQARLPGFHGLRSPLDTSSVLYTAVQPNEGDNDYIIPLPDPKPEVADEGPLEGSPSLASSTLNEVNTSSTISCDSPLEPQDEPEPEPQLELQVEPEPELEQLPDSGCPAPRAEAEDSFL
Put plainly: immunofluorescence on HeLa cells, 40 nM Nanobody, detection with mouse anti-myc and goat anti-mouse Alexa 488; PDGFR co-stained with a commercial antibody. The protocol: 40 nM of nanobody was added in medium and incubated 30 minutes at room temperature. Cells were put on ice to stop internalization and washed 3 times with ice-cold PBS. Cells were fixed by incubation for 30 minutes with 4% PFA at room temperature. After washing with PBS amine groups were blocked by incubation for 10 min. with 100 mM glycin in PBS at room temperature. After washing cells were permeabilized by incubation for 5 min. with 0.2% TritonX-100 in PBS at room temperature.
Cells were blocked by incubation in 2% Marvell/PBS for 15 minutes. Subsequently nanobodies were detected by incubation for 1 hour with mouse anti-myc (9E10) antibody in 2% Marvell/PBS and after washing 1 hour with goat-anti-mouse-alexa-488 in 2% Marvell/PBS in the dark. After washing coverslips were mounted with 4 ul mowiol and let to dry for at least 30 minutes. Dry slides were stored at −20 C.

The target in test [4] is T2, Recombinant human PDGFRβ/Fc chimera …. Put plainly: ELISA ligand competition with PDGFRβ-Fc and coated PDGF-BB (FIG. 5). The protocol:
Clones tested in the PDGFRβ binding assay were also screened for their ability to block PDGF-BB binding to PDGFRβ-Fc. For this, Nanobody containing periplasmic extracts, or selected purified Nanobodies, were used in an ELISA-based ligand competition setup. In short, 1.0 ug/ml (80 nM) recombinant human PDGF-BB (R&D Systems #220-BB) was coated in 96 well Maxisorp microtiter plates (Nunc) and blocked with 4% Marvel skimmed milk in PBS. In parallel, 1 ug/ml (12 nM) PDGFRβ-Fc chimera was incubated with periplasmic extracts or purified Nanobody. After 1 hour, the receptor-Nanobody pre-mixes were incubated 1 hour with the coated ligand. Bound PDGFRβ-Fc was detected using HRP-conjugated goat anti-human IgG (Jackson Immunoresearch, Cat #109-035-098). Blocking activity was determined as loss of OD signal, as compared to wells where no Nanobodies, or irrelevant Nb, had been added.

T2 sequence (P09619 33-532, change not shown): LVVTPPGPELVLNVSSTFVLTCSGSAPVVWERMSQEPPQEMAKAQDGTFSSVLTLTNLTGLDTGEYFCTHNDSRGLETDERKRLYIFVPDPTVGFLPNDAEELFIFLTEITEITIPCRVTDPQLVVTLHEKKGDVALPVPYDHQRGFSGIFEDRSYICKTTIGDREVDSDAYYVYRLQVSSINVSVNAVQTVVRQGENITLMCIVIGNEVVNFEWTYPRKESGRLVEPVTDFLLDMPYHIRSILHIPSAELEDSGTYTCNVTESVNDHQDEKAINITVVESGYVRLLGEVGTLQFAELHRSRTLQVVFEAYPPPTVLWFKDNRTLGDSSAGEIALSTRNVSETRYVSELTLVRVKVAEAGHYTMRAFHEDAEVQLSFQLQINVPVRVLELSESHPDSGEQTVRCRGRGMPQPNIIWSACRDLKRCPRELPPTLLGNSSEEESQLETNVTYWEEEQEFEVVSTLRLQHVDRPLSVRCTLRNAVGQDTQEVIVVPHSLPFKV
Sequence of dimeric VEGFR1/Fc chimera (R&D Systems Cat #321-FL) (P17948 27-758 limits assumed, change not shown): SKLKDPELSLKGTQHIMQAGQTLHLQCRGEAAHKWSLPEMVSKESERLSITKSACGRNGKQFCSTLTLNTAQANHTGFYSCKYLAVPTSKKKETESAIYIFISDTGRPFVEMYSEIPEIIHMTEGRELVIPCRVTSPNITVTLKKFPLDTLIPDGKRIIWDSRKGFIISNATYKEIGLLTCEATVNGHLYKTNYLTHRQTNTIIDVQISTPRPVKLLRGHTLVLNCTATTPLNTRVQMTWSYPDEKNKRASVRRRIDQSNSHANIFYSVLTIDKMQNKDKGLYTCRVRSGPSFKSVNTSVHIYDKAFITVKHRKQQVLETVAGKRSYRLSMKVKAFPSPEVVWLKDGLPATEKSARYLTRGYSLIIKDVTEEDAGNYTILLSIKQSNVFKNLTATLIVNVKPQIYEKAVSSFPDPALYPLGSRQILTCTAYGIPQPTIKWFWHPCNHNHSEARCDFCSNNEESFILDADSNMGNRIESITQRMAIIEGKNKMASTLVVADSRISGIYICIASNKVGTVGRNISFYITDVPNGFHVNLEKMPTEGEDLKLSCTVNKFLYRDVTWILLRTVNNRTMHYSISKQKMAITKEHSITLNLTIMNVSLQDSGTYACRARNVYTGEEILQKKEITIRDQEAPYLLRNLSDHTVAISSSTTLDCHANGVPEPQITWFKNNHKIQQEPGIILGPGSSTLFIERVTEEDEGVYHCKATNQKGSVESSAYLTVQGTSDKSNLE

B1: 46-F11 (VHH)
VHH: EVQLVESGGGLVQPGGSLRLSCAASGFTFSSYAMSWVRQAPGKELEWVSGINSGGDRTVNADSVKGRFTVSRDNAKNTLYLQMNSLKPEDTALYYCAKSIPPTDDRNYWGQGTQVTVSS
In test [1], B1 yielded an IC50 (read off the curve) of 1 nM.

B2: 53-G3 (VHH)
VHH: EVQLVESGGGLVQAGGSLRLSCAASRRTFSSYAMGWFRQAPGKEREIVADISWNGSRTYYADSAKGRFTISRDNAKNTVYLQMNSLKPEDTAVYYCAAALFGGLGRAPSTHEYAYWGQGTQVTVSS
notes: Purified Nanobody; Also used as negative control in the FGFR4 assays
On to B2, for which the binding result in test [2] is given as “no binding”; in test [3] it was “binds”; with PDGFRb on HeLa cells, “binds”.

B3: 53-B5 (VHH)
VHH: B2 VHH with I47V
notes: Purified Nanobody
For the molecule B3, the binding result (in test [3]; with PDGFRb on HeLa cells) was “binds” in each case.

B4: 42-H5 (VHH)
VHH: EVQLVESGGGLVQPGGSLTLSCAASGFTFSSYAMSWVRQAPGKGLELVSDINSGGISTYYADSVKGRFTISRDNAKNTLYLQMNSLKPEDTAVYYCKTDTLVAGTDDYWGQGTRVTVSS
notes: Purified Nanobody; Also used as negative control in the PDGFRβ assays
As to B4, the binding result in test [4] is “no binding (tested: 50 nM)”.
